# In paper PMC8273494:
# Biological target: hnRNP A1 internal_change (UniProt P09651)
# Assay: SPR
# Conditions: hnRNP A1 immobilized; very hard to regenerate; called non-special binding; phosphorothioate at all 30 linkages (stereorandom); SPR: 10 mM PBS (138 mM NaCl, 2.7 mM KCl, 10 mM Na2HPO4, 1.76 mM KH2PO4, 0.05% Tween-20), pH 7.4, 25 C, aptamer 0.39-50 nM; BLI: biotinylated aptamer on SA …
# Sequence of hnRNP A1 internal_change (P09651 other isoform, or with tags, fused parts or gaps): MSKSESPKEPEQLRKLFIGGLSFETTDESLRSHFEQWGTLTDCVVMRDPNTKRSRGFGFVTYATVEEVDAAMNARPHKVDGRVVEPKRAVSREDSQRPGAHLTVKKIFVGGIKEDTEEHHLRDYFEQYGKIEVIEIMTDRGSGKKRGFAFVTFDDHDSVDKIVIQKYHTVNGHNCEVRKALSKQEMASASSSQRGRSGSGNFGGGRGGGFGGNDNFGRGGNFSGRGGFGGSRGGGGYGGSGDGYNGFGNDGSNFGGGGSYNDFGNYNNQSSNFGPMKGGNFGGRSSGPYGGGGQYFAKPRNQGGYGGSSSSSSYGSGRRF
sequence,measurement,value
TGTGGCGAGGTAGGTGGGGTGTGTGTGTATC [WW-20],Kd,0.014 nM
